Experimental findings from article PMC5563082 are described below.

A word on the Kd: it is the constant that tells how readily two partners part at equilibrium.

Assay [1] addresses human NL1(–A+B)_(ECTO), immobilised for SPR (human). The experiment in a line: SPR; biotinylated NL_(ECTO)-Avitag variants captured from dialysed conditioned medium on streptavidin CM5 chip (500 RU; 550 RU for the ΔSite series; 1000 RU for NL3 and NL3 Arg451Cys in the R451C series); β-NRX1_(LNS6)(±4), MDGA1_(ECTO), MDGA2_(ECTO) injected, 15 concentrations, two-fold series from 50 μM; TBS-CTB (10 mM Tris pH 7.4, 150 mM NaCl, 3 mM CaCl2, 0.005% Tween-20, 1.0 g/L BSA); equilibrium analysis, 1:1 Langmuir model. A general note: Surface plasmon resonance follows binding to a sensor surface in real time, without labels.

Assay [2] addresses human NL1(–A–B)_(ECTO), biotinylated and immobilised for SPR (human). Described as above.

human NL1(–A+B)_(ECTO), immobilised for SPR (human), sequence (Q8N2Q7 whole entry): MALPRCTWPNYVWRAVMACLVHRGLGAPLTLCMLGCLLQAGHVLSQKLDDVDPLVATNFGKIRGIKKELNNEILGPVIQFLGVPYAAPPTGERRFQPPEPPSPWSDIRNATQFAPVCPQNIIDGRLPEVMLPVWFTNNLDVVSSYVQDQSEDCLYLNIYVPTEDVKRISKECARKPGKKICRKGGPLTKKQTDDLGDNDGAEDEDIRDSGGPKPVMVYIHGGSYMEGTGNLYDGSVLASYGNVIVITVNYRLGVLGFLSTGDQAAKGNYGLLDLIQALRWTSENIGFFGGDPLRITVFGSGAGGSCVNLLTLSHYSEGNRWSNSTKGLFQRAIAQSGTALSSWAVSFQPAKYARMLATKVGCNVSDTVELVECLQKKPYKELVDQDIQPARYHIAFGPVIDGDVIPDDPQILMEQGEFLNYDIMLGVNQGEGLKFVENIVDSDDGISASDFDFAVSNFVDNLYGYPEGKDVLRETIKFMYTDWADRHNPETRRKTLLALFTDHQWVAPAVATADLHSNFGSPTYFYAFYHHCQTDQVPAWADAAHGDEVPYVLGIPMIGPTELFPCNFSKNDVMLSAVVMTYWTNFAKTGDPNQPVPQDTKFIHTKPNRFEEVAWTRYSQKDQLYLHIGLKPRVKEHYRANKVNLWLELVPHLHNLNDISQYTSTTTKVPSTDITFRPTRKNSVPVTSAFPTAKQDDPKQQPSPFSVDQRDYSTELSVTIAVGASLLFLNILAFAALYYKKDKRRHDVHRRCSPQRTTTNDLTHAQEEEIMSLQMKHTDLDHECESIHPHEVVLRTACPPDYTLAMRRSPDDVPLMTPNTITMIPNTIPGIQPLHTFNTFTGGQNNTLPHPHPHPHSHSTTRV
human NL1(–A–B)_(ECTO), biotinylated and immobilised for SPR (human), sequence (Q8N2Q7 whole entry): as above

B1: human MDGA2 extracellular domain (MDGA2_(ECTO); Gln21-Lys927) (domain or fragment)
chain: QGVYAPPTVRIVHSGLACNIEEERYSERVYTIREGETLELTCLVTGHPRPQIRWTKTAGSASDRFQDSSVFNETLRITNIQRHQGGRYYCKAENGLGSPAIKSIRVDVYYLDDPVVTVHQSIGEAKEQFYYERTVFLRCVANSNPPVRYSWRRGQEVLLQGSDKGVEIYEPFFTQGETKILKLKNLRPQDYANYSCIASVRNVCNIPDKMVSFRLSNKTASPSIKLLVDDPIVVNPGEAITLVCVTTGGEPAPSLTWVRSFGTLPEKTVLNGGTLTIPAITSDDAGTYSCIANNNVGNPAKKSTNIIVRALKKGRFWITPDPYHKDDNIQIGREVKISCQVEAVPSEELTFSWFKNGRPLRSSERMVITQTDPDVSPGTTNLDIIDLKFTDFGTYTCVASLKGGGISDISIDVNISSSTVPPNLTVPQEKSPLVTREGDTIELQCQVTGKPKPIILWSRADKEVAMPDGSMQMESYDGTLRIVNVSREMSGMYRCQTSQYNGFNVKPREALVQLIVQYPPAVEPAFLEIRQGQDRSVTMSCRVLRAYPIRVLTYEWRLGNKLLRTGQFDSQEYTEYAVKSLSNENYGVYNCSIINEAGAGRCSFLVTGKAYAPEFYYDTYNPVWQNRHRVYSYSLQWTQMNPDAVDRIVAYRLGIRQAGQQRWWEQEIKINGNIQKGELITYNLTELIKPEAYEVRLTPLTKFGEGDSTIRVIKYSAPVNPHLREFHCGFEDGNICLFTQDDTDNFDWTKQSTATRNTKYTPNTGPNADRSGSKEGFYMYIETSRPRLEGEKARLLSPVFSIAPKNPYGPTNTAYCFSFFYHMYGQHIGVLNVYLRLKGQTTIENPLWSSSGNKGQRWNEAHVNIYPITSFQLIFEGIRGPGIEGDIAIDDVSIAEGECAKQDLATK
For the molecule B1, in assay [1], the fold weaker than with NL1(–A–B) (ECTO) amounted to 7 fold. In assay [2], this molecule returned a Kd of 1000 nM.

B2: human MDGA1 extracellular domain (MDGA1_(ECTO); Gln19-Lys925) (domain or fragment)
chain: QGVYAPAQAQIVHAGQACVVKEDNISERVYTIREGDTLMLQCLVTGHPRPQVRWTKTAGSASDKFQETSVFNETLRIERIARTQGGRYYCKAENGVGVPAIKSIRVDVQYLDEPMLTVHQTVSDVRGNFYQEKTVFLRCTVNSNPPARFIWKRGSDTLSHSQDNGVDIYEPLYTQGETKVLKLKNLRPQDYASYTCQVSVRNVCGIPDKAITFRLTNTTAPPALKLSVNETLVVNPGENVTVQCLLTGGDPLPQLQWSHGPGPLPLGALAQGGTLSIPSVQARDSGYYNCTATNNVGNPAKKTVNLLVRSMKNATFQITPDVIKESENIQLGQDLKLSCHVDAVPQEKVTYQWFKNGKPARMSKRLLVTRNDPELPAVTSSLELIDLHFSDYGTYLCMASFPGAPVPDLSVEVNISSETVPPTISVPKGRAVVTVREGSPAELQCEVRGKPRPPVLWSRVDKEAALLPSGLPLEETPDGKLRLERVSRDMSGTYRCQTARYNGFNVRPREAQVQLNVQFPPEVEPSSQDVRQALGRPVLLRCSLLRGSPQRIASAVWRFKGQLLPPPPVVPAAAEAPDHAELRLDAVTRDSSGSYECSVSNDVGSAACLFQVSAKAYSPEFYFDTPNPTRSHKLSKNYSYVLQWTQREPDAVDPVLNYRLSIRQLNQHNAVVKAIPVRRVEKGQLLEYILTDLRVPHSYEVRLTPYTTFGAGDMASRIIHYTEPINSPNLSDNTCHFEDEKICGYTQDLTDNFDWTRQNALTQNPKRSPNTGPPTDISGTPEGYYMFIETSRPRELGDRARLVSPLYNASAKFYCVSFFYHMYGKHIGSLNLLVRSRNKGALDTHAWSLSGNKGNVWQQAHVPISPSGPFQIIFEGVRGPGYLGDIAIDDVTLKKGECPRKQTDPNK
Molecule B2 had a fold weaker than with NL1(–A–B) (ECTO) in assay [1] of 7 fold. Further, the Kd in assay [2] came out at 2000 nM.
